Laboratory results as given in patent US8846363B2, “Compositions of and methods of using sulfatases from Flavobacterium heparinum” (priority 2007, dated 2014).
Blank lines part the entries; values can stand above or below the molecule they belong to.

What was measured:
Assay type in all cases: biochemical
[1] = Effect of pH on N-sulfamidase activity by capillary electrophoresis
Procedure: (§1) Initial assessment of substrate specificity and pH optima was made using a capillary electrophoresis-based assay for the detection of desulfated products. Preliminary enzyme activity was measured against the following series of fluorescently derivatized, monosulfated gluco and galactopyranosides: 4-MU-GlcNAc,6S, 4-MU-GlcNS, 4-MU-GalNAc,6S and 4-MU-Gal6S. Standard reactions included 1 mM substrate, 1-10 μM enzyme, 50 mM sodium acetate, pH 5.5-6.5 and 5 mM CaCl2 in a 20 μL reaction volume. For pilot experiments, exhaustive reactions involved overnight incubations at 30° C. Enzyme was inactivated by heat denaturation at 95° C. for 10 minutes, followed by a 10-fold dilution into water. Reaction products were resolved by capillary electrophoresis using a 25 cm long, 75 μm (i.d.) fused silica capillary (Agilent Technologies, Palo Alto, Calif.). Electrophoresis was carried out under negative polarity by applying a voltage of −15 kV (˜1.2 W) for 10 minutes. Substrate desulfation was measured as a percentage of substrate depletion relative to a minus enzyme control as monitored by the loss of UV absorbance at 315 nm detected at approximately 4 minutes. A standard capillary electrophoresis buffer included 50 mM Tris and 10 μM dextran sulfate (average MW of 10,000 Da) adjusted to pH 2.0 with phosphoric acid. At this pH, saccharide migration occurred on the basis of charge without the influence of electro-osmotic flow.
The effect of pH was likewise measured by capillary electrophoresis using the following three sets of buffers with overlapping pH ranging from 4.5 to 8.0:50 mM sodium citrate at 4.5, 5.0, and 5.5; 50 mM MES at 5.5, 6.0, 6.5 and 7.0; and 50 mM MOPS at 6.5, 7.0, 7.5, and 8.0. Reactions included 1 μM enzyme, 2 mM 4-MU-GlcNAc,6S (for 6-O-sulfatase) or 4-MU-GlcNS (for N-sulfamidase), 50 mM buffer and 5 mM CaCl2 in a 20 μL reaction volume. Assay was initiated by the addition of 2 μl of a 10× enzyme stock to 18 μL of preheated reaction mixture. […]

[2] = Coupled 6-O-sulfatase/β-glucosidase fluorimetric plate assay (reaction conditions, steady-state kinetics)
Source text: Indirect measurement of enzyme activity was also made using a fluorimetrically-based plate assay in which the prerequisite desulfation of the appropriate glucopyranoside 1→4 methlybelliferone substrate by either the 6-O-sulfatase or N-sulfamidase was coupled to the glucosidase-mediated hydrolysis of the stereo-specific 1→4 glycosidic linkage between the pyranose ring and the adjoining fluorophore. Release of the free fluorophore (4-MU) was monitored spectroscopically as described above for the arylsulfatase assay using 4-MU sulfate. The two sulfatase assays differed in the choice of substrate in accordance to their specificity as well as the glucosidase added during the second, […] step. For the 6-O-sulfatase, the hydrolysis of the substrate 4-MU-β-D-GlcNAc,6S at the 6-OH position was coupled to β-glucosidase purified from sweet almonds (MP Biomedicals, Solon, Ohio, Catalog No. 195197). Likewise, N-sulfamidase hydrolysis of 4-MU-α-D-GlcNS at the 2-amino position was coupled to α-glucosidase (MP Biomedicals, Catalog No. 153487). […] The presumption of the first (sulfatase) activity being the rate-limiting step was established experimentally. Reaction conditions were optimized to satisfy three related criteria: 1) linear readout of fluorescent signal which is directly proportional to sulfatase activity; 2) quantitative release of 4-MU by glucosidase activity under every biochemical condition examined and; 3) negligible fluorescent quenching of the free chromophore.
For the 6-O-sulfatase/β-glucosidase assay, the standard reaction conditions included 2 μM recombinant enzyme, 50 mM sodium acetate buffer, pH 5.5, and 5 mM CaCl2 in a 20 μl reaction volume. 4-MU-GlcNAc,6S substrate concentration was varied from 0.1-2 mM. 2 μL of enzyme were added to each well of a microtiter plate (prechilled on ice), plate gently vortexed, and contents of each well spun down for 1 minute at 500×g, 4° C. […] Reactions were transferred to a black 96 well, flat-bottom FIA-plate and fluorescence measured as described above for the detection of free 4-MU. […]

[3] = Effect of pH on 6-O-sulfatase activity by capillary electrophoresis
Procedure: as §1, with “Electrophoresis was carried out under negative polarity by applying a voltage of −15 kV (˜1.2 W) for 10 minutes.” left out, “A standard capillary electrophoresis buffer included 50 mM Tris and 10 μM dextran sulfate (average MW of 10,000 Da) adjusted to pH 2.0 with phosphoric acid. At this pH, saccharide migration occurred on the basis of charge without the influence of electro-osmotic flow.” left out
The effect of pH was likewise measured by capillary electrophoresis using the following three sets of buffers with overlapping pH ranging from 4.5 to 8.0:50 mM sodium citrate at 4.5, 5.0, and 5.5; 50 mM MES at 5.5, 6.0, 6.5 and 7.0; and 50 mM MOPS at 6.5, 7.0, 7.5, and 8.0. […]

activity below pH 4.5 ([1]; below pH 4.5): Neither enzyme was active
activity in acetate buffer compared to sulfonate buffers (MES, MOPS) ([1]; same pH range): higher activity in acetate buffer
B1: Flavobacterium heparinum N-sulfamidase (ORF C), recombinant, NH2-terminal truncation lacking signal sequence, SEQ ID NO: 4 (Pedobacter heparinus DSM 2366) (protein)
chain: SCTSPEKKTDRPNILMIMSDNQSWNHVGSYGDQTVRTPNMDRIAKEGVRFTNAFCSSPSCTPARAGMLTGQDIWRLEDGGNLWGVLPVKYKVYPDLLEEAGYAIGFQGKGWGPGSFEANKRPRNPAGNEFKSFGAFLKDKKEGPWCYWISSHEPHRPYVEGSGEKAGIDPNKVKVPAYLPDHISIRKDIADYYAAVETFDRELGEALDQLKASGELDNTVIVVCSDNGWQMPRGLANLYDFGTHVPLIISWPGKFKQDVVADNLVTLNDLAPTFLQLGKVPVPADMTGKSLLPIVEAGKKDEKPRDYVVLGRERHAFVRRHGLGYPGRAIRTKDYLYIKNYEPNRWPAGDPPFYGDIDPYMFNWPGETKYYLIEHKDDPKVKSFFELGMGKRPAEELFDINKDPDELHNLAALPEYQKIKQELVAKLRNYLVATKDPRETNGNIQIWDTAAYFSEIDKTPKPSKEMQKRFKLDSSYNYLK
notes: E. coli BL21(DE3), N-terminal 6xHis removed by thrombin
pH range of activity compared with the other enzyme ([1]; compared with 6-O-sulfatase): active over a broader range, especially above pH 7.0

effect of Mg^+2 or Mn^+2 on activity ([2]; 1 mM or 5 mM divalent metal): only negligible effects
activation by the presence of calcium ([2]; calcium added): 2-3 fold
activity below pH 4.5 ([3]; below pH 4.5): Neither enzyme was active
activity in acetate buffer compared to sulfonate buffers (MES, MOPS) ([3]; same pH range): higher activity in acetate buffer
B2: Flavobacterium heparinum 6-O-sulfatase (ORF B), recombinant, NH2-terminal truncation lacking signal sequence, SEQ ID NO: 2 (Pedobacter heparinus DSM 2366) (protein)
chain: TLMSCQQPKPAESAKRPNIVFIMTDDHTIQAISAYGSKLVKTPNLDRIANEGMLFNNCFVTNAVCGPSRATILTGKYSHLNGLTDNSKVFDSTQVIYPQLLKKAGYQTAMIGKWHLGSTPMGFDYYSILPNQGQYYQPEFIENGHLVKEKGYVTDLITDKAIGFLEKRDHDKPFLMIYQHKAPHRNWLPAPRHLGMFDDTVFPEPANLLDDFKGRGRAAKEQLMNISTDMWPAWDLKMLSTAQLDSMAKLPVSPKFKDAKGDDYQQANDPSLDKARFFEVYNRMTDAEKVQWRKVYDKRVAEFKRLNPKGADLVRWKYQQYMRDYLACVVSVDENVGRLMDYLKKIGELDNTIIVYTSDQGFYLGEHGYFDKRFMYDESFRTPLMVRYPPSVKAGSVSNAFAMNLDFAPTLLDYAGVKIPADMQGLSLRPVLDNAGKSPENWRKAVYYHYYEFPSWHMVKRHYGIRTERYKLIHFYNDIDEWELYDMQKDPHEMQNLYNDKAYEPIIKDLKVQMKKLQVQYKDTNPTEAL
notes: as for B1
activity remaining relative to the zero NaCl control ([2]; 1 M NaCl): less than 20%
